Laboratory results published in the supplement of paper PMC12636428.

system: Saccharomyces cerevisiae; assay: transcriptional activation domain activity (GFP:mCherry ratio, weighted mean of sorted bins, harmonized to initial dataset scale) (arbitrary fluorescence ratio units); higher = stronger transcriptional activation; conditions: beta-estradiol 1 µM; induction time 4 h
Description: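 53-aa protein tiles (fungal proteins plus yeast TF control tiles) fused C-terminally to a DBD-estrogen-binding domain-mCherry synthetic TF, integrated in S. cerevisiae (URA3 locus) with a GFP reporter. Cells were induced with 1 uM beta-estradiol for 4 h at 30 C, FACS-sorted into 8 bins by GFP:mCherry ratio and barcodes sequenced. Activity is the read-weighted mean bin fluorescence (GFP:mCherry), averaged over barcodes (median 12); tiles under 50 reads were discarded. New active-learning values were harmonized by linear fit onto the scale of the initial (Hummel et al.) dataset. The assay saturates at low and high signal.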

Point of comparison: “ALLFLNTLLELLESYHKSQYLAEILSRLQVDWRSLWSWLSVFIRSYANLKMGT”, “transcriptional activation domain activity” value 28300. Against it:
- GHDGHGKGHGHGKGGHGRYARGEEAELEERGYGHGHGGHGKGGHGRYAREEEA — lower, 21100
- AIENGGASDGEPKKRVRKRGGRKNKARRDSAAAAAAAAAAAAAGGQSSAALAP — lower, < 6570
- VFLKVYLLNPLHMTRFADLLYQGAILNRIFQPYESHLQYLLQWMCDYNLYGCA — higher, 71200
- GDDETDAPAKPKEGEDEKKPSSASPEDDLRSSRRSHKKREPGHRDRDRERDRD — lower, 15300
- MAIYEAASTPGSSAGSHADKPYHSKRPHRKSRKGCRTCKARKVKCDEVRPSCT — lower, 27900
- EESLGAGMAKLNLDSATPSSHKSEPIFIAIDCEAYEEGAHAVTEVGVATLDTR — higher, 56000
- ESEGDPEPQPAKSQSRRRQSRGRGRRGAESDSESVARSDVSATGGRRNRQRQK — higher, 43500
- HFAGLVILGVFLMFINAIVLWPILKSFHDCKHLIKVWFFWMIYCLLFVLYIFC — higher, 72600
- IELSRNFVNVPDFVCFFNLPDNLSVLYTLEIVYFGQLLLFHSIIYALVLIRFW — higher, 47900
- VKAVVICLLICETLQITFFFCATYWLLIDHFGDFNALVVITWHESVQLLAGYL — higher, 45200
- CVCRMILAPLLHLFISFFLLCMAAVASPPLRWILWYYWGCFTVQEVNWHMLRF — higher, 45500
- AATTDGEASANEGALVPAGEGAAEGEAKKPRQRKPRVARPPRPAGEEPTGEPS — higher, 45500
- QQLRIKIDSWSYQYGVDEVIRNRNRNLLIQMYMLLPPARFWLYMKRVRIMLLN — higher, 66500
- STGGARKGSAAPSKTSSSNISGRDKEKSRSKEKLGSQSALAAGSTPAPKAAAA — higher, 47900
- PFGICGSFLGLFFCVMGLIAHMPSIWLVRGGNHSYTSLPGNSWLCVIFCLFSC — higher, 49200
- SKFASSGLFGVDVYSVWKRATEKISDGNNTTDSNQKHHPYHNHPSNDSGNEKN — higher, 41500
- LPFYFFLHCTLSMIPSIHSPSFLQSYICFMLIPPLPLMFIVVFHPLYFFWLFL — lower, 15000
- EAAPKEDAAPEPAPEKESKPEKAPEPKAEASKPAAPPASEKKDLKTAPKEETK — higher, 28500
- SIFVVFFISFVPLVVQELTERGFWRAATRLAKHFGSLSFLFEVFVCQVYANSL — higher, 65500
- LADYMCDYSGSLIGKHFKTLAQIMPFAIQDLVPSSVQAAWLLIGRLVVLLWVT — higher, 52900
- MWTSLGCYSCLLCLLLHVVYVPSLLVPSQHPFLSSCLGAVGLTFTWMICCFFP — higher, 56500
- KKKSSRKRDEEDKERSLRKHSRHHKSRRKRSRERSESPESSRHRHRHKKSSSS — lower, 17600
- MFAKILVLSWFDSIRWGLFLLLCVMGVFLLFDIPFFLFPTCFLCLVFPFLLAK — lower, 20400
- MRRLKFGFFPPHFAGFFLSVVLHIIIVYNLWVPFVLLFLLISFLSFLSCIQSF — higher, 54200
- ETEGFAKMAKAMGFGVYGLPSYIIKHIYNNCTHLFVVWHYGTLLIHLTAYPSF — higher, 73700
- MPALQCALLLHQVNMAFLQWNCMLYTIYHFRIIHIIILLLHMCTRTIICLLNG — higher, 37700
- MGYCFFLYIYIPFTLLFSNTCRLVGVFLSFYICMIGYSLLWLPNLWLAFFLIN — higher, 37700
- HKEASDKENTGSGQAQKNNKVKANTGARVKDEQEAKKKVGRPKKGTEAGTGAG — higher, 39500
- GANAGGARPSSRTSNKKPTSSASPPNDSNDSNKKKDADAKKHDGKKAERGGGR — higher, 29100
- ENVRGIMTENIERVLERGERIDLLVDKTGRLNVNAGEFRRRSRGLRRRMWWKN — higher, 37700
- MMELEGWDGGPYIWVDLVILFWLFVILLDWFFLLAIFSTVRGSPGLVGVFFFF — higher, 52100
- RAARARATPARPRPRASASRARGACRASTRGCRRRRSSSSSSRAGARMRATSA — higher, 58600
- MSQCLGTGYPIVCLVLICVRHGAMLDIREKAVEMIFTILLTSTVKVAKKLDKH — higher, 49500
- NRWMMATFMSGCVGALVYFFYKLVKVVMLKSTPSFVSIWKSLTTFSIIAIFLL — higher, 37200
- ESGESEESGRARSRRKRRRREERRGEEGKRRTRAGVRRSKGRKTERASTAGTD — higher, 43100
- MFMSTLLLVFIHYGWAFFLGCCLWCFVISLCFWYVKLWLLVGCYILVLCDVAR — higher, 37400
- GELRLPELQAIGISGGMSLLQDAVFMDGRPEASPLFKIIHLLKRASHWKLGRS — higher, 46300
- MLTEVLEYCYVHGKKAYVLFNILQHVLDCHDYISFTHQLVLVMKYAKYQYVIA — higher, 55100
- AESGGESAGNASGEDFAAPKKKSSRSRIKKALQSLGSGKLSPKNSRTPKASPV — higher, 28400
- MSNGFFLGLWVLIKRPFFFFFFHLFVMHGVLGGCWDLLVGFVCLHRGFWFLFW — higher, 70700
- RRRGGRGAGEGGEGEQEKGEGEQEKGEGEQERGGKGSRRRGGRGAGEGGEGEQ — lower, 13900
- GPYDDIFMGGIYGIKHLYELEDGLTILWHDGIHFSPNRVFRLLIAFLLRVVGT — higher, 61900
- HNQPVPKLLHITIYHLSTIPNDNLASFRDLLNHVHVYLLPLVSARPLFTLVTH — higher, 78800
- MGGVWGFLWSFFFLFPLFFFSLSKDGLDCFISFILVSFYFFSFLFCIHVFFFS — lower, 15600
- MFFLSSFSALLAFSPPPSLLLLLLLLLTFPLSGFLALFLPRFSISLLTLSFFY — higher, 50700
- MNITTVRALGLYILFHQYLIMIEDFICGFLIWYLRYFFYFTYLLCTVISYLSC — higher, 78500
- FFHVTIRVASQGCGIGFAILGFGNLGLFLAFLILGAEGYFSLVLCTFRFVISW — higher, 78100
- FFCCSSLKRDMRFRSYLWAVWVGVVTGVKTSINLVSYRGLPPNNIIIKNLFFA — higher, 67700
- LALQRMDWHSVFRKTFYESRSWLHLLTNFSRIWIMHISAFWYYMAANIDFFYR — higher, 56400
- MGLRTTPDYQKVEFTVTDIGLILKTLWICADLITFLFPLQRLVFHALVLLFSF — higher, 62300
- VKFRFLTYSRWLVLILYVFSWSFTIISMLLVTTNNANFTSCFLSIMVCDIFYS — higher, 71700
- FFCFVFLAHYTWLIKHGFQTHLLELGSFFSDLSLIICFFLLIMHLFCVTPFFR — higher, 68400
- MFCLRSWLPLLFIPTNASPIFIFLFFVSTYFLNRPCVYCSFLLLILFASSCHW — higher, 52500
- GSTSSSNEEKKEQSITSESKAAGGLFGSIKSNEPPTSAFGSLSTTEAKPAASP — higher, 32800
- PVKPASKKPAEKAKEKAKEAPKEKAKAKEPAKAKEDKPKAKPASKKAAAKPAA — higher, 34700
- AQLLQRTWLIHWSLFVFFNHPRGRDYIVDLLFQPNYINSIQMACPWILRYLTA — higher, 45100
- PLYPTTRCIFFFYRFLLYVVHLNMSLLMHSFFFVLLQACRGWMSLFLLLSLLF — higher, 47900
- MYMIFINPLLLMIILYIKLLPLMFPLLINLLILLIFLLYIHLLSIVFLQKFYI — higher, 60100
- MESHSFLPICRYFWGVMPQLMPSFYLNLLSWFSLCFIVFHWLHTVVIFPYLLL — higher, 49200
- MILTLFALCFFFLDTSSCFLHFISIVSFLISLILCLFFFFFLVASEPFHFIPS — higher, 57900
- MEFSFTMVGIFYFLYSLAWSFSFLFFISYDHSLAGLVTIVKAFLISYYFFIFL — lower, 26200
- LAHFVIHRGLIISIMQAVFSAIFYFAPIALYQGMLLVGYTTVYTMWPLFSLVL — higher, 58500
- RLRAEGEEDAAAGNDQNKSGRKGGGVAMVGDGINDSPALAAASVGIALSTGSE — higher, 29300
- MLVRISLFLTLPFTLNLLPTMDLCCIGNVKILNYLSKCIHGSLCNHSIILIRL — higher, 56300
- FEAKHADLIGSQKALYFQSTENIKNLLSMFTSYFSPIVDLLGHLHRVLTQVYH — higher, 46600
- EAVPHQDNDSFRSEKKEGEAEVQIVEDVGSSIYGCDRTQRTLKNRHIQLIGVG — higher, 50200
- FLRRVFQNHPEVMFKPGPFYMGDGIIGLGANWICICWTLFVCVLLSFPTILPV — higher, 66700
- RAITPMRVWMEVHDRAAFKLVWSEVFRLVSVLTDCPLRFKRLHYGGTMLGINT — higher, 45000
- MTNRQRVGHKKSRHGCIRCKARRVKCDEQRPCSNCVRHRTPCSLSQEPLAAAL — higher, 45200
- SLVLQTVFLYMVERVDICIDYLKVHRRFREAEVYLLRFQQCMTRAMTLIKMYF — higher, 75700
- SDDSSEASAIDSGDSSSQSSSDSDSEDAKKKTRRKTAKAKAKAKSKSKNSKKV — lower, 24800
- MEEPSGDASRRRNGPRLYHKKSRLGCIRCKQRRVKCDEKRPACTGCSRHAVEC — higher, 60500
- LCREVIIGGILGGILVFLVISLFFLIGHFFLFFVVLFLLLFNTTLCSLLVEVL — lower, 18900
- KLAKKEPKAAAKPKTEKAKVEKKPAAKKATTTKAKPAAPKAKAAAKPKAATTK — lower, 23800
- LPKDANLCFGKDFLAMYFYCTAVPTLFMFMVSERLYNALMQLAVFLLLCILHL — higher, 65000
- INCQVVYQLQGITGHMALNFASINFAIRTIYIWMHNVYVTSTLSLLILCQWVI — higher, 54700
- AASETTAKKSRGRKRKTVPEPDCDDEDNTGAARCSQPRSRKRARTTAPAEPRE — lower, 12200
- PAAQFLTEKRDRGGGGKGGEEGGGGSGKKVYKGAAMPNRYGIRPGHRWDGVDR — lower, 28200
